biological target: F-actin (filamentous actin, purified from chicken breast) (Gallus gallus (chicken)) (UniProt P68139); assay: co-sedimentation

Row | Substance | Kd
1 | UTRN-ABD N109A (from UniProt P46939 1-261) (domain or fragment) | 55 µM
2 | UTRN-ABD V87D (from UniProt P46939 1-261) (domain or fragment) | > 100 µM

The next substances have a lower Kd than those just listed; values first:

Row | Kd | Substance
3 | 1.8 µM | Human UTRN-ABD (utrophin actin binding domain, amino acids 1-261) (from UniProt P46939 1-261) (domain or fragment)
4 | 2.8 µM | UTRN-ABD H29A (from UniProt P46939 1-261) (domain or fragment)
5 | 38 µM | UTRN-ABD I22D (from UniProt P46939 1-261) (domain or fragment)
